Results as given in patent publication US20250297255A1 (ARSENAL BIOSCIENCES, published 2025).

T1: Human Solute Carrier Family 34 Member 2 (SLC34A2) (human, UniProt O95436 1-690)
T1 construct: Endogenous on OVCAR-3 cells; engineered on 786-O cells in the CAR kinetics assay; also called NaPi2b; NPT2B
T1 sequence: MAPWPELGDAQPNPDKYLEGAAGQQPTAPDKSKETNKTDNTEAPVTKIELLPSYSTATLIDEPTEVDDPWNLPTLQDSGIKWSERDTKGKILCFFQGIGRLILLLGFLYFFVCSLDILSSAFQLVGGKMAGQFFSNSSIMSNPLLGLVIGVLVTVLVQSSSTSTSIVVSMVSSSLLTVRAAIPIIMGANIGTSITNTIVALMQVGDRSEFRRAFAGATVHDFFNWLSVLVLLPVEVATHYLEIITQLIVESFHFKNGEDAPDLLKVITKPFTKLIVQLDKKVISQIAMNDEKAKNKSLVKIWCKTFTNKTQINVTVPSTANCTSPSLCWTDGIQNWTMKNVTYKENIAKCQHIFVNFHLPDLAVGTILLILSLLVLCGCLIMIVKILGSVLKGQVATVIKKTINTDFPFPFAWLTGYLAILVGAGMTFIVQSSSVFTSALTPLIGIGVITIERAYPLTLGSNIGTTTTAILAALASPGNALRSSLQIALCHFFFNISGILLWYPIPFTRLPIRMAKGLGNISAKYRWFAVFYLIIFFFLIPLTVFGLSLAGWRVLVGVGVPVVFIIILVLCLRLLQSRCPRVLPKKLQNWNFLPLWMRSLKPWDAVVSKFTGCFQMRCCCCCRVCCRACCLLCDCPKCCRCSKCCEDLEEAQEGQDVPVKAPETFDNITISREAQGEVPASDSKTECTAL

T2: SLC34A2 peptide fragment (peptide 1) (human, biotinylated (site not stated))
T2 construct: ELISA antigen captured on NeutrAvidin plates; also called SLC34A2 peptide immunogen
T2 peptide: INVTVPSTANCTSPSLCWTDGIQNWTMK

T3: ECL-mFc fusion protein (human SLC34A2 ECL2 fused to murine Fc) (human, biotinylated (site not stated))
T3 construct: The range 234-362 is the ECL2 part counted on human SLC34A2; also called mECL2-Fc protein
T3 chain: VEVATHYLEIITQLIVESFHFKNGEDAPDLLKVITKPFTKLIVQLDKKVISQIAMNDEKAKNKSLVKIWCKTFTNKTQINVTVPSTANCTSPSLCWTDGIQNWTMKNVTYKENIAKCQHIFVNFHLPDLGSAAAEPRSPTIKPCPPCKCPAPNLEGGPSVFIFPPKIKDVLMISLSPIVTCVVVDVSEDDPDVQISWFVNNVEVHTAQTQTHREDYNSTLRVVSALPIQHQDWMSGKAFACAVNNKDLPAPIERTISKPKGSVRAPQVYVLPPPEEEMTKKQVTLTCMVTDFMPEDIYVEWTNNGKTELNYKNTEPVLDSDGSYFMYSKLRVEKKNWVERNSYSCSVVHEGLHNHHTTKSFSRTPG


Assays:
[1] = target: T1, Human Solute Carrier Family 34 Member 2 …; experiment: flow cytometry on OVCAR-3 cells (endogenous human SLC34A2), hIgG1/kappa, 8 five-fold dilutions from 133 nM;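 also: binding read as geometric mean fluorescence intensity, with non-transfected HEK293 cells serving as the negative control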
Description: Antibodies were screened by standard flow cytometry methods for binding to human OVCAR-3 human ovarian cancer cells which endogenously express human SLC34A2. HEK293 cells were used as a non-transfected negative control. […] Stained cells were then resuspended in cold FACS buffer and analyzed by flow cytometry for geometric mean fluorescent intensity (GeoMFI) and total cell counts on an iQue automated flow cytometer.

[2] = target: T2, SLC34A2 peptide fragment (peptide 1); experiment: ELISA, biotinylated antigen on NeutrAvidin plate, anti-human Fc-HRP
Protocol: (§1) Briefly, NeutrAvidin plates were coated at 1 μg/ml overnight, washed and incubated with blocking buffer for at least 1 hr. Biotinylated antigens as well as irrelevant antigens were then added at 1 μg/ml for at least 1 hr at RT, followed by rigorous washing. […] After additional wash steps, 3,3′,5,5′-Tetramethylbenzidine (TMB) substrate was added and optical density read using an appropriate plate reader.

[3] = target: T3, ECL-mFc fusion protein (human SLC34A2 …); experiment: as above
Protocol: as §1

Binder | EC50 [1] [nM] | Max Signal by flow cytometry [1] | binding result [2] | binding result [3]
SLC34A2 Ab 13 (antibody, human IgG1, kappa, V domains shown, recombinant hIgG1/kappa from TAP products in Expi293) VH: QVQLVESGGGLVQPGRSLRLSCIGSGFTFGEYAMSWVRQAPGKGLEWVGFIRTKPYGGTTEFAASVKGRFTMSRDDSKSIAYLEMNSLKTEDTAVYYCTLIPALRFLEWLPWGQGTLVTVSS VL: EIVLTQSPSSLSASVGDRVTVTCRANQDINNYLAWYQQTPGKVPKLLIYAASTLQSGVPSRFSGSGSGTDFTLTISSLQPEDVATYYCQNYYSVPWTFGQGTKLEIKR | 41 | 233 | binds | binds
SLC34A2 Ab 14 (antibody, human IgG1, kappa, V domains shown, recombinant hIgG1/kappa) VH: QVQLQESGPGLVKPSETLSLTCTVSGGSVSSGSYYWSWIRQPPGKGLEWIGYIFYSGSTYYNPSLKSRVTISVDTSKNQFSLKLTSVTAADTAVYFCARWMTTVKGYFDYWGQGTLVTVSS VL: EIVLTQSPDFQSVTPKESVTITCRASQSVGSGLHWYQQKPDQSPKLLIKYASQSFSGVPSRFSGSGSGTDFTLTINSLEAEDAATYYCLQSSSLPWTFGQGTKVEIKR | 9 | 288 | binds | binds
SLC34A2 Ab 1 (antibody, human IgG1, kappa, V domains shown, recombinant hIgG1/kappa from TAP products in Expi293) VH: QVQLQESGPGLVKPSETLSLTCTVSGGSVSSGNFYWSWIRQPPGKGLEWIGYIYYSGSTYYNPSLKSRVTISVDTSKNQFSLKLRSLTAADTAVYYCARWMTKVKGYFDYWGQGTLVTVSS VL: EIVLTQSPDFQSVTPKEKVTITCRASQSVGSGLHWYQQKPDQSPKLLIKYASQSFSGVPSRFSGSGSGTDFTLTINSLEVEDAATFYCLQSSSLPWTFGQGTKVEIKR | 7 | 353 | binds | binds
SLC34A2 Ab 7 (antibody, human IgG1, kappa, V domains shown, recombinant hIgG1/kappa from TAP products in Expi293) VH: QVQLQESGPELVKPSETLSITCTVSGGSISSRSYYWGWIRQPPGKGLEWIGSIYYGGSTYYNPSLKSRVTISADTSKNQFSLKLNSVTAADTAVFYCVRHPAGYSTRWSAFDIWGQGTMVTVSS VL: EIVLTQSPSSLSASVGDRVTITCRASQSISSYLNWYQQKPGRAPELLIYAASSLQSGVPSRFSGSGSGTDFTLTISSLQPEDFATYYCQQSFSSLTFGQGTRLEIKR | 16 | 278 | binds | binds

Other lines, results leading:

EC50 [1] [nM] | Max Signal by flow cytometry [1] | binding result [2] | binding result [3] | Binder
5 | 305 | binds | binds | SLC34A2 Ab 12 (antibody, V domains shown, recombinant hIgG1/kappa from TAP products in Expi293) VH: QVQLQESGPGLVKPSETLSLTCTVSGGSISSSSYYRGWIRQPPGKGLEWIGSIYYSGSTYYNPSLKSRVTISVDTSKNQFSLKLSSVTAADTAVYYCARHPRGSYGANFDYWGQGTLVTVSS VL: not shown
5 | 277 | no binding | binds | SLC34A2 Ab 4 (antibody, human IgG1, kappa, V domains shown, recombinant hIgG1/kappa from TAP products in Expi293) VH: QVQLLESGGGLVQPGGSLRLSCAASGFTFSSYAMNWVRQAPGKGLEWVSAISGGVGNTYYADSVKGRFTISRDNSKNTLYLQMNSLRAEDTAVYYCTKDGPLWGNYFDYWGRGTLVTVSS VL: EIVLTQSPSSLSASVGDRVTITCRASQGISNYLAWYQQKPGKVPNLLIYTASTLQSGVPSRFSGSGSGTDFTLTISSLQPEDVATYYCQKYNSAPFTFGPGTKVDIKR
6 | 211 | no binding |  | SLC34A2 Ab 6 (antibody, human IgG1, kappa, V domains shown, recombinant hIgG1/kappa) VH: QVQLLESGGGLVQPGGSLRLSCAASGFTFSSSAMAWVRQAPGKGLEWVSAISSSGDNTYYADSVKGRFTISRDTSKNTLSLQMSSLRAEDTAIYYCAKQGTNWGLYFDYWGQGTLVTVSS VL: DIQMTQSPSSLSASVGDRVTIACRASQVISNYLAWYQQKPGKVPKLLIYVASTLQSGVPSRFSGSGSGTDFTLTISSLQPEDVATYYCQNYNSAPWTFGQGTKLEIKR
5 | 271 | no binding |  | SLC34A2 Ab 5 (antibody, human IgG1, kappa, V domains shown, recombinant hIgG1/kappa) VH: QVQLQESGPGLVKPSETLSLTCSVSGGSISSSSYYWGWIRQPPGKGLEWIGSIDYSGSTYYNPSLKSRVTISIDTSKNQFSLRLSSVTAAEKAVYYCARHGRGTIGYFDYWGQGTLVTVSS VL: DIQMTQSPSSLSASVGDRVTITCRASQSISSYLNWYQQKPGKAPKLLIYAASSLLTGVPSRFTGSGSGTDFTLTISSLQPEDFGTYYCQQSYSPPLTFGGGTKVEIKR
7 | 330 | binds | binds | SLC34A2 Ab 2 (antibody, human IgG1, kappa, V domains shown, recombinant hIgG1/kappa from TAP products in Expi293) VH: QVQLQESGPGLVKPSETLSLTCTVSGGSVSSGSYYWSWIRQAPGKGLEWIGYIYYSGSNYYNPSLKSRVTISVDTSKNQFSLKLRAVTAADTAVYYCARWMTTIKGYFDYWGQGTLVTVSS VL: EIVLTQSPDFQSVTPKEKVTITCRASQSVGSGLHWYQQKPDQSPKLLIKYASQSFSGVPSRFSGSGSGTDFTLTINSLETEDAATYFCQQSSSLPWTFGQGTKVEIKR
